Source: article PMC4072508, “Genome-Wide Prediction and Validation of Peptides That Bind Human Prosurvival Bcl-2 Proteins” (PLoS Computational Biology, 2014)

T1: Mcl-1, Q07820
T1 chain: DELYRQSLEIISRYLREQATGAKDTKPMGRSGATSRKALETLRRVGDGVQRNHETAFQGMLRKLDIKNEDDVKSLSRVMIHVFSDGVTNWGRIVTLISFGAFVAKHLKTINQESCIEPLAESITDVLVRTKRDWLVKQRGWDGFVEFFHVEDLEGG

B1: SORT1 (peptide)
chain: VFDDLRGSVSLSWVLDSTGVILVLTT
B2: FAM115A (peptide)
chain: RGAMLSLATGLAHSLSDLSLLVPEIE
B3: BAT3 (peptide)
chain: QRLINLVGESLRLLLNTFVALSDLRC
B4: GLOD4 (peptide)
chain: VILADPDGHEICFVLDEAFRELSKMD
B5: SOS1 (peptide)
chain: QLSKPGAALYLQSIGEGFKEAVQYVL
B6: STRN (peptide)
chain: LGLGELAGLTDANEADSLTYDIANNK
B7: ITPR3 (peptide)
chain: KKCQDMIMTEDTNAGDDVVVFYNDKA
B8: SCAP (peptide)
chain: IQQDLGCGASDGVISDNLLVTGGQGC
B9: PRPSAP1 (peptide)
chain: ITVVGDVGGRIAIILDDIIDDVESFV
B10: TIGD7 (peptide)
chain: SAGVPVRGVELQAALERFARCFGRTD
B11: DCAF8 (peptide)
chain: TLHFNQRGTWDASGSDDLKVVVWDWV
B12: GNB5 (peptide)
chain: SVRYYPSGDAFASGLDDATCRLYDLR
B13: SCAP (peptide)
chain: IQQDLGCGASLGVILDNLLVTGGQGC
B14: HDLBP (peptide)
chain: RHFVIRRGQVDREIAEEYGGVMVSFP
B15: DIRC2 (peptide)
chain: IVGGCVVGIADARFADFIRGMLKLIL
B16: PRKDC (peptide)
chain: SHALICISHWDLGIGDRHLNNFMVAM
B17: ATAD2 (peptide)
chain: SQGDKRVAFFMRKGLDCLSKWVGESE
B18: NEDD9 (peptide)
chain: SKFVILSAHKLVFILDTLTRQVTAQD
B19: SPOCK2 (peptide)
chain: GKPETCTGQDDADLGDRLRDWFQLLH
B20: SEH1L (peptide)
chain: RVSWNITGTVDASSGDDGCVRLWKAN
B21: KIF13A (peptide)
chain: RIEMWISILEDNELGEYAAVELHQAK
B22: MSH3 (peptide)
chain: AVLCVECGYKYRFFGEDAEIAARELN
B23: HAP1 (peptide)
chain: VEQFSEASQQMAELLEVLVLRLENYE
B24: ADCY10 (peptide)
chain: EKVLIFGGDILKFALDALLALWRVER
B25: PRPSAP1 (peptide)
chain: ITVVGDVGGRIAIIVDDIIDDVESFV
B26: HIRA (peptide)
chain: GLTWDPVGKYIASQLDDRSLKVWRTL
B27: CLTCL1 (peptide)
chain: FRFAQLCGLHIVIHADELEELMCYYQ
B28: POLQ (peptide)
chain: DLLGMVVVDEDHMLGDSHRGYLLELL
B29: TRO (peptide)
chain: SALETQVAAADQALADDYLAQLSLEP
B30: SLC40A1 (peptide)
chain: AKFLLYLGHSLSTWLDRMWHFAVSVF
B31: DBC1 (peptide)
chain: ISDVQVFGYSDRFNADLLRSAVQQVN

Each binder was assayed against Bcl-xL, Q07817 (assay: peptide SPOT array, c-Myc-tagged receptor at 1 uM or 100 nM, anti-c-Myc-Cy3).
Chain of Bcl-xL, Q07817 (Q07817 1-209): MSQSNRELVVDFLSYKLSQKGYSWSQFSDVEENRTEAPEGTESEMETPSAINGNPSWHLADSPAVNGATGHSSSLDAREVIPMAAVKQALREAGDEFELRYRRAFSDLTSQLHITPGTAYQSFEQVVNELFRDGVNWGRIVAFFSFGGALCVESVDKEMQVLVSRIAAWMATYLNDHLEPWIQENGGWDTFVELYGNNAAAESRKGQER

Question: With B1 as the binder, how does the SPOT signal as a fraction of Bim BH3's signal on the same receptor and array read?
Answer: 0.01

Question: B2 was tested. Which SPOT signal as a fraction of Bim BH3's signal on the same receptor and array did it give?
Answer: 0.06

Question: B3 was tested. Which SPOT signal as a fraction of Bim BH3's signal on the same receptor and array did it give?
Answer: 0.08

Question: B4 was tested. Which SPOT signal as a fraction of Bim BH3's signal on the same receptor and array did it give?
Answer: 0.02

Question: For B5, which SPOT signal as a fraction of Bim BH3's signal on the same receptor and array is on record?
Answer: 0.02

Question: With B6 as the binder, how does the SPOT signal as a fraction of Bim BH3's signal on the same receptor and array read?
Answer: 0.01

Question: How did the SPOT signal as a fraction of Bim BH3's signal on the same receptor and array turn out when B7 was run?
Answer: 0.02

Question: Which SPOT signal as a fraction of Bim BH3's signal on the same receptor and array does the source give for B8 here?
Answer: 0.01

Question: For B9, which SPOT signal as a fraction of Bim BH3's signal on the same receptor and array is on record?
Answer: 0.02

Question: Which SPOT signal as a fraction of Bim BH3's signal on the same receptor and array does the source give for B10 here?
Answer: 0.04

Question: Which SPOT signal as a fraction of Bim BH3's signal on the same receptor and array does the source give for B11 here?
Answer: 0.02

Question: With B12 as the binder, how does the SPOT signal as a fraction of Bim BH3's signal on the same receptor and array read?
Answer: 0.02

Question: Which SPOT signal as a fraction of Bim BH3's signal on the same receptor and array does the source give for B13 here?
Answer: 0.01

Question: For B14, which SPOT signal as a fraction of Bim BH3's signal on the same receptor and array is on record?
Answer: 0.02

Question: For B15, which SPOT signal as a fraction of Bim BH3's signal on the same receptor and array is on record?
Answer: 0.15

Question: B16 was tested. Which SPOT signal as a fraction of Bim BH3's signal on the same receptor and array did it give?
Answer: 0.02

Question: Which SPOT signal as a fraction of Bim BH3's signal on the same receptor and array does the source give for B17 here?
Answer: 0.06

Question: Which SPOT signal as a fraction of Bim BH3's signal on the same receptor and array does the source give for B18 here?
Answer: 0.06

Question: B19 was tested. Which SPOT signal as a fraction of Bim BH3's signal on the same receptor and array did it give?
Answer: 0.01

Question: For B20, which SPOT signal as a fraction of Bim BH3's signal on the same receptor and array is on record?
Answer: 0.07

Question: B21 was tested. Which SPOT signal as a fraction of Bim BH3's signal on the same receptor and array did it give?
Answer: 0.03

Question: For B22, which SPOT signal as a fraction of Bim BH3's signal on the same receptor and array is on record?
Answer: 0.01

Question: How did the SPOT signal as a fraction of Bim BH3's signal on the same receptor and array turn out when B23 was run?
Answer: 0.02

Question: With B24 as the binder, how does the SPOT signal as a fraction of Bim BH3's signal on the same receptor and array read?
Answer: 0.04

Question: Which SPOT signal as a fraction of Bim BH3's signal on the same receptor and array does the source give for B25 here?
Answer: 0.02

Question: B26 was tested. Which SPOT signal as a fraction of Bim BH3's signal on the same receptor and array did it give?
Answer: 0.86

Question: For B27, which SPOT signal as a fraction of Bim BH3's signal on the same receptor and array is on record?
Answer: 0.02

Question: For B28, which SPOT signal as a fraction of Bim BH3's signal on the same receptor and array is on record?
Answer: 0.02

Question: With B29 as the binder, how does the SPOT signal as a fraction of Bim BH3's signal on the same receptor and array read?
Answer: 0.01

Question: B30 was tested. Which SPOT signal as a fraction of Bim BH3's signal on the same receptor and array did it give?
Answer: 0.12

Question: With B31 as the binder, how does the SPOT signal as a fraction of Bim BH3's signal on the same receptor and array read?
Answer: 0.02

Biological target: T1, Mcl-1, Q07820
Assay: as above

Question: For B1, which SPOT signal as a fraction of Bim BH3's signal on the same receptor and array is on record?
Answer: 0.02

Question: With B2 as the binder, how does the SPOT signal as a fraction of Bim BH3's signal on the same receptor and array read?
Answer: 0.05

Question: For B3, which SPOT signal as a fraction of Bim BH3's signal on the same receptor and array is on record?
Answer: 0.03

Question: For B4, which SPOT signal as a fraction of Bim BH3's signal on the same receptor and array is on record?
Answer: 0.02

Question: With B5 as the binder, how does the SPOT signal as a fraction of Bim BH3's signal on the same receptor and array read?
Answer: 0.02

Question: How did the SPOT signal as a fraction of Bim BH3's signal on the same receptor and array turn out when B6 was run?
Answer: 0.01

Question: Which SPOT signal as a fraction of Bim BH3's signal on the same receptor and array does the source give for B7 here?
Answer: 0.01

Question: Which SPOT signal as a fraction of Bim BH3's signal on the same receptor and array does the source give for B8 here?
Answer: 0.01

Question: B9 was tested. Which SPOT signal as a fraction of Bim BH3's signal on the same receptor and array did it give?
Answer: 0.02

Question: Which SPOT signal as a fraction of Bim BH3's signal on the same receptor and array does the source give for B10 here?
Answer: 0.05

Question: B11 was tested. Which SPOT signal as a fraction of Bim BH3's signal on the same receptor and array did it give?
Answer: 0.02

Question: Which SPOT signal as a fraction of Bim BH3's signal on the same receptor and array does the source give for B12 here?
Answer: 0.02

Question: Which SPOT signal as a fraction of Bim BH3's signal on the same receptor and array does the source give for B13 here?
Answer: 0.01

Question: How did the SPOT signal as a fraction of Bim BH3's signal on the same receptor and array turn out when B14 was run?
Answer: 0.03

Question: How did the SPOT signal as a fraction of Bim BH3's signal on the same receptor and array turn out when B15 was run?
Answer: 0.14

Question: B16 was tested. Which SPOT signal as a fraction of Bim BH3's signal on the same receptor and array did it give?
Answer: 0.02

Question: Which SPOT signal as a fraction of Bim BH3's signal on the same receptor and array does the source give for B17 here?
Answer: 0.03

Question: With B18 as the binder, how does the SPOT signal as a fraction of Bim BH3's signal on the same receptor and array read?
Answer: 0.04

Question: For B19, which SPOT signal as a fraction of Bim BH3's signal on the same receptor and array is on record?
Answer: 0.01

Question: B20 was tested. Which SPOT signal as a fraction of Bim BH3's signal on the same receptor and array did it give?
Answer: 0.03

Question: Which SPOT signal as a fraction of Bim BH3's signal on the same receptor and array does the source give for B21 here?
Answer: 0.02

Question: B22 was tested. Which SPOT signal as a fraction of Bim BH3's signal on the same receptor and array did it give?
Answer: 0.01

Question: B23 was tested. Which SPOT signal as a fraction of Bim BH3's signal on the same receptor and array did it give?
Answer: 0.02

Question: B24 was tested. Which SPOT signal as a fraction of Bim BH3's signal on the same receptor and array did it give?
Answer: 0.03

Question: Which SPOT signal as a fraction of Bim BH3's signal on the same receptor and array does the source give for B25 here?
Answer: 0.02

Question: For B26, which SPOT signal as a fraction of Bim BH3's signal on the same receptor and array is on record?
Answer: 0.55

Question: For B27, which SPOT signal as a fraction of Bim BH3's signal on the same receptor and array is on record?
Answer: 0.02

Question: Which SPOT signal as a fraction of Bim BH3's signal on the same receptor and array does the source give for B28 here?
Answer: 0.02

Question: B29 was tested. Which SPOT signal as a fraction of Bim BH3's signal on the same receptor and array did it give?
Answer: 0.01

Question: B30 was tested. Which SPOT signal as a fraction of Bim BH3's signal on the same receptor and array did it give?
Answer: 0.07

Question: For B31, which SPOT signal as a fraction of Bim BH3's signal on the same receptor and array is on record?
Answer: 0.02
